The source of these data is paper PMC2910063.

Data set [1] has as its target T1, FoxM1-DBD (FoxM1C 222-360) (UniProt Q08050 222-360).
T1 sequence: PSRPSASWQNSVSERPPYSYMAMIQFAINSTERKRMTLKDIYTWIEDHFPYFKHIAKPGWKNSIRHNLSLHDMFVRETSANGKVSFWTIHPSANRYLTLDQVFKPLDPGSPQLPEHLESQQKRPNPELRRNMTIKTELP
Briefly: competition fluorescence anisotropy. (In general: In fluorescence polarisation assays a small probe gives low polarisation when free and higher when bound to something large.)

The target of data set [2] is T2, FoxM1-DBD (FoxM1C 222-360), crystal (UniProt Q08050 222-360).
T2 sequence: T1 sequence
Briefly: X-ray crystallography 2.2 A.

The target in data set [3] is T1, FoxM1-DBD (FoxM1C 222-360). Briefly: fluorescence anisotropy.
For data set [4], the target named is T1, FoxM1-DBD (FoxM1C 222-360). Briefly: fluorescence anisotropy. The source holds these as a separate data set.

Read-outs that look alike come from different tables or passages of the source.

B1: 1x (dsDNA)
DNA 1: CCGATTGTTTAGCCCGTGCC
DNA 2: GGCACGGGCTAAACAATCGG
Broadly, the IC50 is the concentration at which inhibition is half-maximal. In data set [1], B1 gave a half-maximal inhibitory concentration (IC50) of 7 µM.

B2: Fm1-2x-19nt-aa/tt (dsDNA)
DNA 1: AAATTGTTTATAAACAGCCCG
DNA 2: TTCGGGCTGTTTATAAACAAT
For B2, in data set [2], the binding result was “binds”.

B3: 11 bp consensus, TAMRA (dsDNA)
DNA 1: CCATAAACAAC
DNA 2: GTTGTTTATGG
By Kd is commonly meant the equilibrium constant for the complex coming apart. As for B3, the figures for the dissociation constant (Kd) in data set [3] and in data set [4] were 7.5 ± 0.8 µM and 7 ± 0.3 µM, respectively.
